Assay results: paper PMC4941815 (Molecular cell, 2016)
Read-outs that look alike come from different tables or passages of the source. Blank lines part the entries; values can stand above or below the binder they belong to.

B2: full-length His-tagged CLK1 (enzyme)
chain: not shown
B3: kdSRPK1, kinase inactive SRPK1 containing K109M (enzyme, UniProt Q96SB4 1-655, looked up)
chain: MERKVLALQARKKRTKAKKDKAQRKSETQHRGSAPHSESDLPEQEEEILGSDDDEQEDPNDYCKGGYHLVKIGDLFNGRYHVIRKLGWGHFSTVWLSWDIQGKKFVAMMVVKSAEHYTETALDEIRLLKSVRNSDPNDPNREMVVQLLDDFKISGVNGTHICMVFEVLGHHLLKWIIKSNYQGLPLPCVKKIIQQVLQGLDYLHTKCRIIHTDIKPENILLSVNEQYIRRLAAEATEWQRSGAPPPSGSAVSTAPQPKPADKMSKNKKKKLKKKQKRQAELLEKRMQEIEEMEKESGPGQKRPNKQEESESPVERPLKENPPNKMTQEKLEESSTIGQDQTLMERDTEGGAAEINCNGVIEVINYTQNSNNETLRHKEDLHNANDCDVQNLNQESSFLSSQNGDSSTSQETDSCTPITSEVSDTMVCQSSSTVGQSFSEQHISQLQESIRAEIPCEDEQEQEHNGPLDNKGKSTAGNFLVNPLEPKNAEKLKVKIADLGNACWVHKHFTEDIQTRQYRSLEVLIGSGYNTPADIWSTACMAFELATGDYLFEPHSGEEYTRDEDHIALIIELLGKVPRKLIVAGKYSKEFFTKKGDLKHITKLKPWGLFEVLVEKYEWSQEEAAGFTDFLLPMLELIPEKRATAAECLRHPWLNS

How the values were obtained:
His-tagged SRPK1 [1] = target: T1, His-tagged SRPK1 (UniProt Q96SB4 1-655); experiment: pull-down
His-tagged SRPK1 [2] = target: T1, His-tagged SRPK1; experiment: pull-down; remark: listed apart in the source
[3] = target: B3; experiment: displacement of 32P-phospho-GST-SRSF1 from His-CLK1 on Ni-resin
[4] = target: B2; experiment: as above

- binding result (His-tagged SRPK1 [1]): binds
B1: GST-tagged form of the CLK1 N-terminus (domain or fragment, UniProt P49759 1-160, looked up)
chain: MRHSKRTYCPDWDDKDWDYGKWRSSSSHKRRKRSHSSAQENKRCKYNHSKMCDSHYLESRSINEKDYHSRRYIDEYRNDYTQGCEPGHRQRDHESRYQNHSSKSSGRSGRSSYKSKHRIHHSTSHRRSHGKSHRRKRTRSVEDDEEGHLICQSGDVLSAR

Binder: B2
- binding result (His-tagged SRPK1 [2]): binds
- Kd [3]: 16 ± 6 nM

Binder: B3
- stoichiometry N [4]: 1
